Reference: US9732156B2, “Methods of treating rheumatoid arthritis using antibodies to matrix metalloproteinase 9” (Gilead Biologics, Inc., priority 2012, dated 2017)

Legend:
MMP9 = MMP9 (Homo sapiens, UniProt P14780); assay: Comparison of binding and inhibitory properties of anti-MMP9 antibodies; conditions: AB0045 compared with AB0041
CD4+ T cell = assay: EpiScreen ex vivo human T cell activation assay (immunogenicity); type: cell-based
Description: The potential clinical immunogenicity of the chimeric MMP9 antibody AB0041 and the humanized MMP9 antibody AB0045 was assessed. An ex vivo human T cell activation assay, the EpiScreen (Antitope, Ltd., Cambridge, UK) was used. The T cell activation in the EpiScreen assay has been correlated to the antibody/protein therapeutic responses in patients. The response of CD4+ T cell in 20 healthy donors, representing a variety of HLA haplotypes, was examined. […] A positive control of KLH induced a response in 95% of the donors, with a magnitude of 6.34+/−2.77 (mean+/−standard deviation).

[1] = test system: collagen-induced arthritis; assay: Collagen-induced arthritis (CIA) rat model of established disease; type: in vivo
Description: This example provides additional characterizations of the animals in example 7 that were treated with either vehicle, AB0041 (in the rat model) or AB0046 (in the mouse model) at 2, 10, or 50 mg/Kg, Enbrel at 10 mg/Kg, or methotrexate (MTX) at 0.5 mg/Kg.
In addition to clinical scoring in Table 6 that was conducted in example 7, paw swelling, ankle diameter and body weights of the treated animals were measured. The measurements were conducted once a week before randomization and three times a week thereafter.
In addition, hind limbs were examined microscopically for soft-tissue changes (edema, tissue/vessel necrosis, inflammatory cell infiltration, and fibroplasias) and cartilage and bone changes (cartilage erosion, bone erosion, periosteal bone formation, synovitis, pannus formation, and joint destruction). […] The severity scores were based on global changes in each limb.
For anti-TNF-alpha scoring, the entire region of the limb anterior to the tarsal-metatarsal joint was scored. Anti-CD68 staining was evaluated using 3-4 images per limb of synovial membranes in the joints formed by the talus bone, with the scores of each membrane averaged and the value assigned as the overall inflammation score. […] Also, MMP9-expressing cells were identified as osteoclasts and cells of the monocyte/macrophage lineage.
Further, serum panel analyses of terminal serum samples were characterized using ELISA. […] AB0046 titers were measured in terminal serum samples.

adjuvant arthritis (AIA) = assay: Adjuvant-induced arthritis (AIA) rat model of established disease; conditions: in vivo
Description: The anti-MMP9 antibody, AB0041, was efficacious in treating both inflammation and joint damage in both adjuvant and collagen-induced arthritis (AIA, CIA) rat rheumatoid arthritis models of established disease.

[2] = test system: lipopolysaccharide (LPS)-induced animal death; assay: LPS-induced septicemia model; type: in vivo, rat; conditions: after four days
[3] = AB0041 serum levels by indirect binding ELISA in the MSS study; type: in vivo, rat; conditions: Day 0 to Day 28; 50 mg/kg IV twice per week
Description: Levels of AB0041 in rat serum were measured by an indirect binding ELISA. ELISA plates were coated with 2 μg/ml of […] in 50 mM sodium borate overnight at 4° C. The plates were blocked with 5% bovine serum albumin (BSA) in phosphate buffered saline, pH 7.4 (PBS) and washed with 0.05% Tween 20 in PBS (PBST). A standard curve was prepared by serially diluting AB0041 in PBST to generate a series ranging from 3,000 ng/ml to 1.5 ng/ml. Serum samples were diluted at least 1:100 in PBST then added to the pre-coated ELISA plate. After one-hour incubation, the plates were washed and polyclonal goat-anti mouse IgG-HRP detection antibody (Thermo Scientific, Fair Lawn, N.J.) was added to the plate at 1:10,000 dilution in 0.5% BSA/PBS. The plates were washed and signal was detected by addition of 3,3′,5,5′-tetramethylbenzidine (TMB) (Sigma Aldrich, St. Louis, Mo.) for 2 minutes. The reaction was stopped by addition of 1M hydrochloric acid (HCl) and absorbance at 450 nm was measured. AB0041 levels in serum were back-calculated using a four-parameter curve fit in the SoftMax software package (Molecular Devices).

Lewis rats = conditions: rat, in vivo
Description: AB0041 was evaluated for safety in Lewis rats in comparison to the pan-MMP inhibitor, Marimastat, in a 28-day study.
Six rats per group were intravenously administered twice per week with either AB0041 at 50 mg/kg or Vehicle-A (10 mM sodium phosphate, pH 6.5, 140 mM sodium chloride, 0.01% Tween20). In addition, six rats per group were treated with Marimastat or Vehicle-M (50% DMSO/50% water) through a surgically implanted subcutaneous Alzet pump (Alzet, Cupertino, Calif.), which delivered at a rate of 2.5 μl/hour for a period of 28 days. The Marimastat release rate was between 6.8 to 5.7 mg/kg/day.
Animals were observed and scored daily for signs of MSS, such as reluctance to move and avoidance of the use of the hind feet. The following system was used to score resting posture, gait and willingness to move: resting posture was scored as 0 (normal), 1 (resting on one foot) or 2 (resting on neither one foot nor two feet). Gait was scored as either 0 (normal), 1 (avoids use of one hind foot) or 2 (avoids use of both hind feet). Willingness-to-move upon stimulation was scored as either 0 (normal movement), 1 (somewhat reluctant to move), 2 (moderately reluctant to move) or 3 (very reluctant to move). In addition, the body weights were recorded twice weekly.
Total scores were calculated as the sum of gait score, resting posture score and willingness-to-move score for each animal. Mean total scores per group were calculated as the average of the total scores from all individual animals per group per day.
Serum was collected from all rats on one day before and days 1, 7, 10, 14, 17, 21, 24, 28 post administration. Serum was centrifuged at 10,000×g for 10 minutes and collected for storage at −20° C. Serum was subject to multianalyte serum protein analysis (RodentMAPv2.0, IDEXX Laboratories).
Tissues and limbs from the rats were harvested and fixed in 10% neutral buffered formalin for histopathologic analysis using hematoxylin and eosin (H&E).

Sequence of MMP9 (P14780 94-707, species assumed): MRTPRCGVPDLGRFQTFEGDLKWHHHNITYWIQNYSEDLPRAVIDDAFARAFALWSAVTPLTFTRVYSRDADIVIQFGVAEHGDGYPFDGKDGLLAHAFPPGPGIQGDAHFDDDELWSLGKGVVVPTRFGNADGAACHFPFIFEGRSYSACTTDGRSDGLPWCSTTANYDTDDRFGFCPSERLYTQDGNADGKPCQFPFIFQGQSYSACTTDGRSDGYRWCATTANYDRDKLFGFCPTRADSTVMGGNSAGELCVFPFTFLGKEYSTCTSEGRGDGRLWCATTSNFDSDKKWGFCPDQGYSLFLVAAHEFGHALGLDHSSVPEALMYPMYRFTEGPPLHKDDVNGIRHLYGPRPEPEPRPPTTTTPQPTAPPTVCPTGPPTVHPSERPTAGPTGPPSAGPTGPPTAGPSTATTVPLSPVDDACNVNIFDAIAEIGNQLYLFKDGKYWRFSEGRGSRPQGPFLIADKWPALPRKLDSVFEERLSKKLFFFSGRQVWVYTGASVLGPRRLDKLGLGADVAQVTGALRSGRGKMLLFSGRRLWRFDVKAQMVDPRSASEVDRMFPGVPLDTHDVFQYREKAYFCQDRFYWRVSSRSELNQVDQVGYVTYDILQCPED

B1: AB0041: mouse monoclonal antibody to human MMP9, mouse IgG2b heavy chain (SEQ ID NO: 1) and mouse kappa light chain (SEQ ID NO: 2) (antibody, listed as Mus musculus)
heavy: MAVLVLFLCLVAFPSCVLSQVQLKESGPGLVAPSQSLSITCTVSGFSLLSYGVHWVRQPPGKGLEWLGVIWTGGTTNYNSALMSRLSISKDDSKSQVFLKMNSLQTDDTAIYYCARYYYGMDYWGQGTSVTVSSAKTTPPSVYPLAPGCGDTTGSSVTLGCLVKGYFPESVTVTWNSGSLSSSVHTFPALLQSGLYTMSSSVTVPSSTWPSQTVTCSVAHPASSTTVDKKLEPSGPISTINPCPPCKECHKCPAPNLEGGPSVFIFPPNIKDVLMISLTPKVTCVVVDVSEDDPDVRISWFVNNVEVHTAQTQTHREDYNSTIRVVSALPIQHQDWMSGKEFKCKVNNKDLPSPIERTISKIKGLVRAPQVYILPPPAEQLSRKDVSLTCLVVGFNPGDISVEWTSNGHTEENYKDTAPVLDSDGSYFIYSKLDIKTSKWEKTDSFSCNVRHEGLKNYYLKKTISRSPGK
light: MESQIQVFVFVFLWLSGVDGDIVMTQSHKFMSTSVGDRVSITCKASQDVRNTVAWYQQKTGQSPKLLIYSSSYRNTGVPDRFTGSGSGTDFTFTISSVQAEDLAVYFCQQHYITPYTFGGGTKLEIKRADAAPTVSIFPPSSEQLTSGGASVVCFLNNFYPKDINVKWKIDGSERQNGVLNSWTDQDSKDSTYSMSSTLTLTKDEYERHNSYTCEATHKTSTSPIVKSFNRNEC
modifications: CHAIN (1)...(470) AB0041 heavy chain; CHAIN (1)...(234) AB0041 light chain
binding and inhibitory properties (MMP9): equivalent binding and inhibitory properties
donors in which a response was induced (CD4+ T cell; CD4+ T cell response, 20 healthy donors of various HLA haplotypes): 20%
magnitude of response (CD4+ T cell; mean+/−standard deviation): 2.29+/−0.36
soft tissue disease, joint damage and destruction (histology) ([1]; 50 mg/kg): reduced all measures of soft tissue diseases, joint damage and destruction
CD68 score by IHC ([1]; 50 mg/kg, compared to vehicle): significant reduction
TNF-alpha score by IHC ([1]; 50 mg/kg, compared to vehicle): significant reduction
arthritis clinical scores ([1]; 50, 10 and 2 mg/kg twice per week (4 doses)): reduced arthritis clinical scores
qualitative and quantitative measurements of clinical disease (paw swelling, ankle diameter, body weight) ([1]; all doses (2, 10, 50 mg/Kg)): significant reversal/mitigation
serum levels of TNFα, IL-6 and IL-17A ([1]; end of study): efficacious in reducing serum levels
serum markers (TIMP-1, GM-CSF, MIP-2, MIP-1β, M-CSF-1, OSM, CXCL10, MCP-5, IL-12p70, INF-γ, IL-12, IL-7) ([1]; terminal serum, ELISA): statistically significant reduction
inflammation and joint damage (adjuvant arthritis (AIA)): efficacious
animals surviving [2]: 70%
mean steady-state serum levels [3]: 2 to 4 mg/mL
H&E staining of hind knee joints (Lewis rats): No synovitis or fibrosis was observed
average MSS score (Lewis rats): zero
histopathology of primary organs (H&E) (Lewis rats): No treatment-related abnormalities were observed
rats with slight limping, avoidance of one hind foot (gait score=1) (Lewis rats): No symptoms were detected
serum chemistry panel (Lewis rats): within normal ranges
signs of MSS (Lewis rats; iv, 50 mg/kg): No signs of MSS
